For orientation: Kd means a measure of binding affinity in units of concentration. A word on the stoichiometry N: it is the number of molecules, sites or subunits per partner or assembly.

Data on 15 molecules can be found in PMC9044407 (Protein Science : A Publication of the Protein Society, 2022).

Data set [1] concerns the target T1, Suv3 (human, UniProt Q8IYB8 48-786).
T1 sequence: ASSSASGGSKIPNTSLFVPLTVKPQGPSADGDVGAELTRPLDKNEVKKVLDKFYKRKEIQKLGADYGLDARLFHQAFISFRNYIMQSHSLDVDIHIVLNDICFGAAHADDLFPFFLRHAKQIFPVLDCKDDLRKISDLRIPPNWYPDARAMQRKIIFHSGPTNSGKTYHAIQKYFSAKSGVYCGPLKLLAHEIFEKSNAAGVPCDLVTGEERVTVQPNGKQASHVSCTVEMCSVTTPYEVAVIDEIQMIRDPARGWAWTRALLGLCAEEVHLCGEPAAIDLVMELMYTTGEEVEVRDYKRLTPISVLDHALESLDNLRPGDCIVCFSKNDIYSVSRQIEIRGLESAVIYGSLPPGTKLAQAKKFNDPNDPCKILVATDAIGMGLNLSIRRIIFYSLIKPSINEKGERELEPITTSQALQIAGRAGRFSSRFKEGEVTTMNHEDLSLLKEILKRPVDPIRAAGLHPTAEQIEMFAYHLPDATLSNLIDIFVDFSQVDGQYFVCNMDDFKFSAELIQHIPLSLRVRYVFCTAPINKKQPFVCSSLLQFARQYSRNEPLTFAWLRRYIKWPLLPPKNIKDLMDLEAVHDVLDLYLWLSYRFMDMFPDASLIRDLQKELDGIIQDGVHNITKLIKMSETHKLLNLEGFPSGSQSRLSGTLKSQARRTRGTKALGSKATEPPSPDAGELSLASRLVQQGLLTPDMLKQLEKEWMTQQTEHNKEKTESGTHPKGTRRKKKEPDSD
The data set is described as follows: fluorescence polarization.

The target of another data set is T2, Suv3ΔC (human, UniProt Q8IYB8 48-722, del723-786).
T2 sequence: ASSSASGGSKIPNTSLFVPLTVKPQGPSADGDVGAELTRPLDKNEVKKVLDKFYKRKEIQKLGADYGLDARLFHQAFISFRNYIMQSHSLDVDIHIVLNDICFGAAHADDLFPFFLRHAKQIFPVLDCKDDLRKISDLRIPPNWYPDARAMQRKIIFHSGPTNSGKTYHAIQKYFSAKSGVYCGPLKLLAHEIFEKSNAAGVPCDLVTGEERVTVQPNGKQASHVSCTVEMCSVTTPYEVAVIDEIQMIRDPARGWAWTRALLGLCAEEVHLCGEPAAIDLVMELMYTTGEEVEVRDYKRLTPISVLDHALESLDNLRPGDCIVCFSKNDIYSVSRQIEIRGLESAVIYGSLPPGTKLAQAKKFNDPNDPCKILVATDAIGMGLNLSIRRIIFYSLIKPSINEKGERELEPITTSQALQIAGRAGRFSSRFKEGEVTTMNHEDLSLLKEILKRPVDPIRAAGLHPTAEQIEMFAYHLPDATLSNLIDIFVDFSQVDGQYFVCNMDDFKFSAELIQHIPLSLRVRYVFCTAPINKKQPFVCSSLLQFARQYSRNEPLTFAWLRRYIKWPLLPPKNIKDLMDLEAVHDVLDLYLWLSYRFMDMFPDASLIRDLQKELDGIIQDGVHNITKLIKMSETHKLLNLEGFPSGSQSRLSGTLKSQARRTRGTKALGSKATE
The experiment in a line: fluorescence polarization.

Data set [2] deals with T1, Suv3. The experiment in a line: fluorescence polarization. This is another data set of the same source. In general terms: Polarisation of emitted light reports the rotation of a fluorescent probe.
In data set [3] the target is T1, Suv3. The experiment in a line: fluorescence polarization. The source holds these as a separate data set.
Data set [4] has as its target T1, Suv3. The data set is described as follows: fluorescence polarization. The source holds these as a separate data set.
The target in data set [5] is T1, Suv3. The data set is described as follows: fluorescence polarization. This is another data set of the same source.
In data set [6] the target is T1, Suv3. The data set is described as follows: fluorescence polarization. The source holds these as a separate data set.
Data set [7] deals with the molecule itself.
The target of data set [8] is T3, human Suv3 (residues 48–786), N-terminal His-tagged (human, UniProt Q8IYB8 48-786).
T3 sequence (looked up): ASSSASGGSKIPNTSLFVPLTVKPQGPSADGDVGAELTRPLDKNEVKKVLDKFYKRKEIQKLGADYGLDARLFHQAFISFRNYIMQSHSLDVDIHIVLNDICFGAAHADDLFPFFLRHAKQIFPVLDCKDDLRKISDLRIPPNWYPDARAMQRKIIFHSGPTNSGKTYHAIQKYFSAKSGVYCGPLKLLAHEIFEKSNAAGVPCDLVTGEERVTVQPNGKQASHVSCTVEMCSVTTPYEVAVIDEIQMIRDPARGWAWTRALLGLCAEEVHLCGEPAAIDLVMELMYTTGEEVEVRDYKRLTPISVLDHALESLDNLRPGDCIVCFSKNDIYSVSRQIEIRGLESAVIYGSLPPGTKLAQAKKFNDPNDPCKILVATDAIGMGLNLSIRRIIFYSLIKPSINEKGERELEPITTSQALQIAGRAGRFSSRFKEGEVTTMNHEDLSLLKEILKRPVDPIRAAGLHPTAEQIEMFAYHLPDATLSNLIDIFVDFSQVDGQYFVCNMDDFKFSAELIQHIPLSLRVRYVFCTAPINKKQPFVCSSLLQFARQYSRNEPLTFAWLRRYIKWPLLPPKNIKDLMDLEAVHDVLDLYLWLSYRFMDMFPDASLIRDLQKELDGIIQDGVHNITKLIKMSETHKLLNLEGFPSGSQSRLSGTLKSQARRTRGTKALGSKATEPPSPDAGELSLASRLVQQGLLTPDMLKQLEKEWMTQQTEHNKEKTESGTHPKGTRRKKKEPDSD
The experiment in a line: SEC. For orientation: SEC sorts molecules by how far they enter the pores of the column.

Like-named read-outs stand apart in the source and are kept apart here.

B1: ssDNA 25 nt (ssDNA)
DNA: GGTGTGGTGGCATACGTGCAGACGC
Consider B1, for which binding in the data set with Suv3 [1] was put at a Kd of 44 ± 1.7 nM.

B2: dsDNA 10-nt 3' overhang (dsDNA)
DNA 1: GGTGTGGTGGCATACGTGCAGACGC
DNA 2: GCGTCTGCACGTATGCCACCACACCAGGAGAGGAG
On to B2, for which the Kd in the data set with Suv3 [1] came to 11.5 ± 0.2 nM; with Suv3ΔC it was 99 ± 8.6 nM.

B3: DNA-RNA hybrid 10-nt 3' overhang (DNA:RNA)
DNA: GGTGTGGTGGCATACGTGCAGACGC
RNA: GCGUCUGCACGUAUGCCACCACACCAGGAGAGGAG
Consider B3, for which the Kd with Suv3 [1] came to 13.1 ± 0.4 nM; with Suv3ΔC it was 110 ± 9.5 nM.

B4: dsRNA 10-nt 3' overhang (dsRNA)
RNA 1: GGUGUGGUGGCAUACGUGCAGACGC
RNA 2: GCGUCUGCACGUAUGCCACCACACCAGGAGAGGAG
As to B4, the Kd in the data set with Suv3 [2] turned out to be 62.2 ± 2.2 nM; with Suv3 [3], 32.6 ± 0.6 nM; with Suv3 [1], 18.7 ± 0.7 nM; in the data set with Suv3 [4], 19.3 ± 0.5 nM.

B5: dsDNA 10-nt 5' overhang (dsDNA)
DNA 1: GGTGTGGTGGCATACGTGCAGACGC
DNA 2: GAGGAGAGGAGCGTCTGCACGTATGCCACCACACC
Consider B5, for which the binding signal in the data set with Suv3 [5] was 8 fold lower affinity than 3' overhang dsDNA.

B6: DNA-RNA hybrid 10-nt 5' overhang (DNA:RNA)
DNA: GGTGTGGTGGCATACGTGCAGACGC
RNA: GAGGAGAGGAGCGUCUGCACGUAUGCCACCACACC
As for B6, the binding signal with Suv3 [5] is 23 fold lower affinity than 3' overhang DNA-RNA hybrid.

B7: dsRNA 10-nt 5' overhang (dsRNA)
RNA 1: GGUGUGGUGGCAUACGUGCAGACGC
RNA 2: GAGGAGAGGAGCGUCUGCACGUAUGCCACCACACC
Turning to B7, the binding result with Suv3 [6] was “no binding”.

B8: human PNPase (residues 46–783), C-terminal His-tagged (enzyme, UniProt Q8TCS8 46-783, looked up)
chain: AVAVDLGNRKLEISSGKLARFADGSAVVQSGDTAVMVTAVSKTKPSPSQFMPLVVDYRQKAAAAGRIPTNYLRREIGTSDKEILTSRIIDRSIRPLFPAGYFYDTQVLCNLLAVDGVNEPDVLAINGASVALSLSDIPWNGPVGAVRIGIIDGEYVVNPTRKEMSSSTLNLVVAGAPKSQIVMLEASAENILQQDFCHAIKVGVKYTQQIIQGIQQLVKETGVTKRTPQKLFTPSPEIVKYTHKLAMERLYAVFTDYEHDKVSRDEAVNKIRLDTEEQLKEKFPEADPYEIIESFNVVAKEVFRSIVLNEYKRCDGRDLTSLRNVSCEVDMFKTLHGSALFQRGQTQVLCTVTFDSLESGIKSDQVITAINGIKDKNFMLHYEFPPYATNEIGKVTGLNRRELGHGALAEKALYPVIPRDFPFTIRVTSEVLESNGSSSMASACGGSLALMDSGVPISSAVAGVAIGLVTKTDPEKGEIEDYRLLTDILGIEDYNGDMDFKIAGTNKGITALQADIKLPGIPIKIVMEAIQQASVAKKEILQIMNKTISKPRASRKENGPVVETVQVPLSKRAKFVGPGGYNLKKLQAETGVTISQVDEETFSVFAPTPSAMHEARDFITEICKDDQEQQLEFGAVYTATITEIRDTGVMVKLYPNMTAVLLHNTQLDQRKIKHPTALGLEVGQEIQVKYFGRDPADGRMRLSRKVLQSPATTVVRTLNDRSSIVMGEPISQSSSNSQ
On to B8, for which the “stoichiometry N” value in [7] stood at 3. For the same molecule, the binding result in data set [8] was “binds”.

B9: blunt-end dsDNA (dsDNA)
DNA 1: GGTGTGGTGGCATACGTGCAGACGC
DNA 2: GCGTCTGCACGTATGCCACCACACC
Regarding B9, the Kd in the data set with Suv3 [1] was determined as 63.9 ± 1.5 nM.

B10: dsRNA 5-nt 3' overhang (dsRNA)
RNA 1: GGUGUGGUGGCAUACGUGCAGACGC
RNA 2: GCGUCUGCACGUAUGCCACCACACCAGGAG
Regarding B10, the Kd with Suv3 [1] was around 65 nM.

B11: blunt-end DNA-RNA hybrid (DNA:RNA)
DNA: GGTGTGGTGGCATACGTGCAGACGC
RNA: GCGUCUGCACGUAUGCCACCACACC
Regarding B11, the Kd with Suv3 [1] came out at 103 ± 5.9 nM.

B12: dsRNA 15-nt 3' overhang (dsRNA)
RNA 1: GGUGUGGUGGCAUACGUGCAGACGC
RNA 2: GCGUCUGCACGUAUGCCACCACACCAGGAGAGGAGAGGAG
As for B12, the Kd with Suv3 [1] is around 18 nM.

B13: dsRNA 20-nt 3' overhang (dsRNA)
RNA 1: GGUGUGGUGGCAUACGUGCAGACGC
RNA 2: GCGUCUGCACGUAUGCCACCACACCAGGAGAGGAGAGGAGAGGAG
As for B13, the Kd with Suv3 [1] is around 18 nM.

B14: blunt-end dsRNA (dsRNA)
RNA 1: GGUGUGGUGGCAUACGUGCAGACGC
RNA 2: GCGUCUGCACGUAUGCCACCACACC
In the case of B14, the binding result with Suv3 [6] is listed as “no binding”.

B15: ssRNA 25 nt (ssRNA)
RNA: GGUGUGGUGGCAUACGUGCAGACGC
For the molecule B15, the Kd with Suv3 [1] stood at 53.1 ± 0.7 nM.
